# In PMC3078644:
# Target: Sortilin (immobilised for SPR) (UniProt Q99523)
# Assay: SPR
# Chain of Sortilin (immobilised for SPR) (P20783 whole entry): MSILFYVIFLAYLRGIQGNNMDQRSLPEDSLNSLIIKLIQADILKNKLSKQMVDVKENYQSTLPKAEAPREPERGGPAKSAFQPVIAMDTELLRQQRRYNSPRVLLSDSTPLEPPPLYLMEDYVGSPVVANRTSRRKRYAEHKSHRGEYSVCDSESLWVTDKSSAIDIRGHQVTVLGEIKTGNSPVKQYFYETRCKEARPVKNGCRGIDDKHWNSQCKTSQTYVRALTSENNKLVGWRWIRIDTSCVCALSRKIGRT
substance,measurement,value
GST-NT3pro (prodomain of proNT3 fused to glutathione-S-transferase) (domain or fragment; other documents disagree on this pair),Kd,20 nM
